In US20180009908:

Assays:
[1] = biological target: BHA10 HC_20.8.34_B + BHA10 LC (IgG1); test: LCMS, IgG1 BsAb co-expression in HEK293F
[2] = biological target: BHA10 HC_20.8.37_B + BHA10 LC (IgG1); test: LCMS, IgG1 BsAb co-expression in HEK293F
[3] = biological target: BHA10 HC_20.8_B + BHA10 LC (IgG1); test: LCMS, IgG1 BsAb co-expression in HEK293F
[4] = biological target: matuzumab HC_20.8.34_B + matuzumab LC (IgG1); test: LCMS, IgG1 BsAb co-expression in HEK293F
[5] = biological target: matuzumab HC_20.8.37_B + matuzumab LC (IgG1); test: LCMS, IgG1 BsAb co-expression in HEK293F
[6] = biological target: matuzumab HC_20.8_B + matuzumab LC (IgG1); test: LCMS, IgG1 BsAb co-expression in HEK293F
[7] = biological target: BHA10 HC_20.8.34_B + BHA10 LC (IgG1); test: LCMS, IgG1 BsAb co-expression; HCA/HCB heterodimer carrying two LC1
[8] = biological target: BHA10 HC_20.8.37_B + BHA10 LC (IgG1); test: as above
[9] = biological target: BHA10 HC_20.8_B + BHA10 LC (IgG1); test: as above
[10] = biological target: matuzumab HC_20.8.34_B + matuzumab LC (IgG1); test: as above
[11] = biological target: matuzumab HC_20.8.37_B + matuzumab LC (IgG1); test: as above
[12] = biological target: matuzumab HC_20.8_B + matuzumab LC (IgG1); test: as above
[13] = biological target: BHA10 HC_20.8.34_B + BHA10 LC (IgG1); test: LCMS, IgG1 BsAb co-expression; HCA/HCB heterodimer carrying two LC2
[14] = biological target: BHA10 HC_20.8.37_B + BHA10 LC (IgG1); test: as above
[15] = biological target: BHA10 HC_20.8_B + BHA10 LC (IgG1); test: as above
[16] = biological target: matuzumab HC_20.8.34_B + matuzumab LC (IgG1); test: as above
[17] = biological target: matuzumab HC_20.8.37_B + matuzumab LC (IgG1); test: as above
[18] = biological target: matuzumab HC_20.8_B + matuzumab LC (IgG1); test: as above
[19] = biological target: matuzumab HC_7.8_A + matuzumab LC (IgG1); test: LCMS, IgG1 BsAb co-expression in HEK293F
[20] = LCMS, IgG1 BsAb co-expression; HCA (MetMAb) homodimer species
[21] = biological target: matuzumab HC_7.8_A + matuzumab LC (IgG1); test: LCMS, IgG1 BsAb co-expression; HCA/HCB heterodimer carrying two LC1
[22] = biological target: matuzumab HC_7.8_A + matuzumab LC (IgG1); test: LCMS, IgG1 BsAb co-expression; HCA/HCB heterodimer carrying two LC2

B1: pertuzumab HC_20.8.26_A + pertuzumab LC (IgG1) (protein)
chain 1: EVQLVESGGGLVQPGGSLRLSCAASGFTFTDYTMDWVRKAPGKGLEWVADVNPNSGGSIYNQEFKGRFTLSVDRSKNTLYLQMNSLRAEDTAVYYCARNLGPSFYFDYWGQGTLVTVSSASTKGPSVFPLAPSSKSTSGGTAALGCLVKDYFPEPVTVSWNSGALTSGVATGPAVLQSSGLYSLSSVVTVPSSSLGTQTYICNVNHKPSNTKVDKKVEPKSCDKTHTCPPCPAPELLGGPSVFLFPPKPKDTLMISRTPEVTCVVVDVSHEDPEVKFNWYVDGVEVHNAKTKPREEQYQSTYRVVSVLTVLHQDWLNGKEYKCKVSNKALPAPIEKTISKAKGQPREPQVSTLPPSREEMTKNQVSLMCLVYGFYPSDIAVEWESNGQPENNYKTTPPVLDSDGSFFLYSVLTVDKSRWQQGNVFSCSVMHEALHNHYTQKSLSLSPGK
chain 2: RIQMTQSPSSLSASVGDRVTITCKASQDVSIGVAWYQDKPGKAPKLLIYSASYRYTGVPSRFSGSGSGTDFTLTISSLQPEDFATYYCQQYYIYPYTFGQGTKVEIKGQPKAAPSVTLFPPSSEELQANKATLVCYISDFYPGAVTVAWKADSSPVKAGVETTTPSKQSNNKYAAWSYLSLTPEQWKSHRSYSCQVTHEGSTVEKTVAPTEC
[1]
  % AB (LC1/LC2) (correct IgG BsAb assembly): 90.3%
[2]
  % AB (LC1/LC2) (correct IgG BsAb assembly): 89.6%
[3]
  % AB (LC1/LC2) (correct IgG BsAb assembly): 96.9%
[4]
  % AB (LC1/LC2) (correct IgG BsAb assembly): 96.9%
[5]
  % AB (LC1/LC2) (correct IgG BsAb assembly): 97.6%
[6]
  % AB (LC1/LC2) (correct IgG BsAb assembly): 95.2%
[7]
  % AB (2x LC1) (incorrect assembly): 9.7%
[8]
  % AB (2x LC1) (incorrect assembly): 7.5%
[9]
  % AB (2x LC1) (incorrect assembly): 0%
[10]
  % AB (2x LC1) (incorrect assembly): 0%
[11]
  % AB (2x LC1) (incorrect assembly): 0%
[12]
  % AB (2x LC1) (incorrect assembly): 0%
[13]
  % AB (2x LC2) (incorrect assembly): 0%
[14]
  % AB (2x LC2) (incorrect assembly): 0%
[15]
  % AB (2x LC2) (incorrect assembly): 0%
[16]
  % AB (2x LC2) (incorrect assembly): 0%
[17]
  % AB (2x LC2) (incorrect assembly): 0%
[18]
  % AB (2x LC2) (incorrect assembly): 0%

B2: MetMAb HC_7.8_B + MetMAb LC (IgG1) (protein)
chain 1: EVQLVESGGGLVQPGGSLRLSCAASGYTFTSYWLHWVRKAPGKGLEWVGMIDPSNSDTRFNPEFKDRFTISADTSKNTAYLQMNSLRAEDTAVYYCATYRSYVTPLDYWGQGTLVTVSSASTKGPSVFPLAPSSKSTSGGTAALGCLVKDYFPEPVTVSWNSGALTSGVATGPAVLQSSGLYSLSSVVTVPSSSLGTQTYICNVNHKPSNTKVDKKVEPKSCDKTHTCPPCPAPELLGGPSVFLFPPKPKDTLMISRTPEVTCVVVDVSHEDPEVKFNWYVDGVEVHNAKTKPREEQYQSTYRVVSVLTVLHQDWLNGKEYKCKVSNKALPAPIEKTISKAKGQPREPQVYTLPPSREEMTKNQVSLVCLVKGFYPSDIAVEWESNGQPENNYKTTPPVLDSDGSFFLYSVLTVDKSRWQQGNVFSCSVMHEALHNHYTQKSLSLSPGK
chain 2: RIQMTQSPSSLSASVGDRVTITCKSSQSLLYTSSQKNYLAWYQDKPGKAPKLLIYWASTRESGVPSRFSGSGSGTDFTLTISSLQPEDFATYYCQQYYAYPWTFGQGTKVEIKGQPKAAPSVTLFPPSSEELQANKATLVCYISDFYPGAVTVAWKADSSPVKAGVETTTPSKQSNNKYAAWSYLSLTPEQWKSHRSYSCQVTHEGSTVEKTVAPTEC
[19]
  % AB (LC1/LC2) (correct IgG BsAb assembly): 100%
[20]
  % AA Homodimer (incorrect assembly): 0%
[21]
  % AB (2x LC1) (incorrect assembly): 0%
[22]
  % AB (2x LC2) (incorrect assembly): 0%
